Measured values: US20180282719A1 (published 2018)
Changes are numbered by the printed parent chain.

B1: Fv4-IgG1 (antibody)
heavy: not shown
light: DIQMTQSPSSLSASVGDSVTITCQASTDISSHLNWYQQKPGKAPELLIYYGSHLLSGVPSRFSGSGSGTDFTFTISSLEAEDAATYYCGQGNRLPYTFGQGTKVEIERTVAAPSVFIFPPSDEQLKSGTASVVCLLNNFYPREAKVQWKVDNALQSGNSQESVTEQDSKDSTYSLSSTLTLSKADYEKHKVYACEVTHQGLSSPVTKSFNRGEC
notes: VH3-IgG1 / VL3-CK
B2: H170/L82 (antibody, IgG1, V domains shown)
VH: QVQLQESGPGLVKPSETLSLTCAVSGHSISHHHAHSWVRQPPGEGLEWIGYISYSGITHYNPHLKGRVTISRDTSKNQFSLKLSSVTAADTAAYYCARVLARITAMDHWGEGTLVTVSS
VL: DIQMTQSPSSLSASVGDSVTITCQASQDISSHLNWYQQKPGKAPELLIYYGSHLHSGVPSRFSGSGSGTDFTFTISSLEAEDAATYYCGQGNRLPYTFGQGTKVEIE
notes: expressed and purified as IgG (IgG1); also called H170/L82-IgG1
B3: humanized PM1 antibody (wild type, WT) (antibody, human IgG1, kappa, V domains shown)
VH: QVQLQESGPGLVRPSQTLSLTCTVSGYSITSDHAWSWVRQPPGRGLEWIGYISYSGITTYNPSLKSRVTMLRDTSKNQFSLRLSSVTAADTAVYYCARSLARTTAMDYWGQGSLVTVSS
VL: DIQMTQSPSSLSASVGDRVTITCRASQDISSYLNWYQQKPGKAPKLLIYYTSRLHSGVPSRFSGSGSGTDFTFTISSLQPEDIATYYCQQGNTLPYTFGQGTKVEIKR
notes: IgG1; also called WT-IgG1; wild type humanized anti-IL-6 receptor antibody
B4: H3pI/L73 (antibody, IgG1, V domains shown)
VH: B2 VH with H32D, H59N, H63S, V99S, I103T, H108Y
VL: B2 VL with D28H
notes: tested as IgG1; also called H3pI/L73-IgG1; H3pl/L73

What follows are binders tested against T1, recombinant soluble human IL-6 receptor (SR344) (human, UniProt P08887 20-344, biotinylated (sites not given) where immobilized via streptavidin or used in phage ELISA) (assay: SPR Biacore T100, antibody on protein A/G chip, SR344 analyte, pH 7.4, 37 C).
T1 construct: also called soluble IL-6 receptor; membrane-type IL-6 receptor (when biotinylated and immobilized on the chip)
T1 sequence (looked up): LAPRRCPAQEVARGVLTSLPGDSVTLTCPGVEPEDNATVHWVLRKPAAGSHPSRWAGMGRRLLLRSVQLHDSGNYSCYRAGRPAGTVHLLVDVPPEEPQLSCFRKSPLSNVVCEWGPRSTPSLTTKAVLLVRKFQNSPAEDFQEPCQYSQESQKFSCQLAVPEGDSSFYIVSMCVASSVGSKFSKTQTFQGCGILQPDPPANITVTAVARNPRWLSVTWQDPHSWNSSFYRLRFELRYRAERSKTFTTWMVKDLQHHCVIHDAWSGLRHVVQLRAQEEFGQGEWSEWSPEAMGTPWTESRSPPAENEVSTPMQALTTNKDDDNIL
Experimental: (§1) Kinetic analysis of antigen-antibody reactions at pH 7.4 and pH 5.8 was carried out using a Biacore T100™ surface plasmon resonance system (GE Healthcare) for the four types of antibodies prepared: WT-IgG1, H54/L28-IgG1, H170/L82-IgG1, and Fv4-IgG1 (buffer: 10 mM MES (pH 7.4 or pH 5.8), 150 mM NaCl, 0.05% Surfactant P20 (polyoxyethelene sorbitan monolaurate)). The antibodies were bound to a sensor chip on which recomb-protein A/G (Pierce) was immobilized by amine coupling, and SR344 adjusted to an appropriate concentration was injected therein as an analyte. The association with and dissociation from SR344 of each type of antibody were observed on a real-time basis. All the measurements were carried out at 37° C. Association rate constants kₐ (1/Ms) and dissociation rate constants kd (1/s) were calculated using Biacore T100™ Evaluation Software (GE Healthcare), and dissociation constants KD (M) were calculated based on those values (Table 17).
B1 gave a Kd of 0.97 nM, a koff of 0.00095 s⁻¹ and a kon of 980000 M⁻¹ s⁻¹. For B2, the Kd was 1.6 nM, the koff was 0.0011 s⁻¹ and the kon was 670000 M⁻¹ s⁻¹. B3 gave a Kd of 1.9 nM, a koff of 0.00094 s⁻¹ and a kon of 490000 M⁻¹ s⁻¹.

The binders below were run against T1, recombinant soluble human IL-6 receptor … (assay: SPR Biacore T100, antibody on protein A/G chip, SR344 analyte, 37 C, ratio of pH 5.8 to pH 7.4).
Experimental: Kinetic analyses of antigen-antibody reactions at pH 5.8 and pH 7.4 were carried out using a Biacore™ T100 surface plasmon resonance system (GE Healthcare) on the four antibodies: humanized PM1 antibody (WT) and H3pI/L73, CLH5/L73, and H170/L82 produced in Examples 2 and 4 (buffer: 10 mM MES (pH 7.4 or pH 5.8), 150 mM NaCl, and 0.05% TWEEN® 20 (polyoxyethelene sorbitan monolaurate)). Various antibodies were bound onto a sensor chip immobilized with recomb-protein A/G (Pierce) by amine coupling. SR344 adjusted to concentrations of 9.8 to 400 nM was injected to the chip as an analyte. […] All the measurements were carried out at 37° C. Association rate constants kₐ (1/Ms) and dissociation rate constants kd (1/s) were calculated using Biacore T100™ Evaluation Software (GE Healthcare), and dissociation constants KD (M) were calculated on the basis of those values (Table 5). Moreover, the ratio of the affinities at pH 5.8 and pH 7.4 were calculated for each clone to evaluate pH-dependent binding. All the measurements were carried out at 37° C.
B4 was tested, and the “KD (pH 5.8)/KD (pH 7.4)” value was 41.3. With B2 the “KD (pH 5.8)/KD (pH 7.4)” value was 394. B3 was tested, and the “KD (pH 5.8)/KD (pH 7.4)” value was 2.4.

Target: T1, recombinant soluble human IL-6 receptor …
Assay: as above
Remark: another data set of the same source
Experimental: as §1
With B1 the “KD (pH 5.8)/KD (pH 7.4)” value was 27.3 and the “kd (pH 5.8)/kd (pH 7.4)” value was 38.8. B2 was tested, and the “KD (pH 5.8)/KD (pH 7.4)” value was 61.9 and the “kd (pH 5.8)/kd (pH 7.4)” value was 11.4. For B3, the “KD (pH 5.8)/KD (pH 7.4)” value was 1.6 and the “kd (pH 5.8)/kd (pH 7.4)” value was 2.9.

These binders were tested against T1, recombinant soluble human IL-6 receptor … (assay: SPR Biacore T100, biotinylated SR344 on streptavidin chip (model of membrane IL-6 receptor), antibody 0.5 ug/mL as analyte, bound at pH 7.4, dissociation at pH 5.8, 37 C).
Experimental: The binding to membrane IL-6 receptor was evaluated by evaluating the binding to the IL-6 receptor immobilized onto a sensor chip. SR344 was biotinylated according to a method known to persons skilled in the art, and the biotinylated SR344 was immobilized on the sensor chip via streptavidin by utilizing the affinity between streptavidin and biotin. All the measurements were carried out at 37° C., and the mobile phase buffer contained 10 mM MES (pH 5.8), 150 mM NaCl and 0.05% TWEEN® 20 (polyoxyethelene sorbitan monolaurate). The pH-dependent binding clones were injected therein under the condition of pH 7.4 and allowed to bind to SR344 (injection sample buffer: 10 mM MES (pH 7.4), 150 mM NaCl, 0.05% TWEEN® 20 (polyoxyethelene sorbitan monolaurate)), and the pH-dependent dissociation of each clone at the mobile phase pH of 5.8 was observed (FIG. 10).
The dissociation rate […]) at pH 5.8 was calculated using Biacore T100™ Evaluation Software (GE Healthcare) by fitting only the dissociation phase at pH 5.8, where 0.5 μg/mL of the sample was bound in 10 mM MES (pH 7.4), 150 mM NaCl, and 0.05% TWEEN® 20 (polyoxyethelene sorbitan monolaurate), and dissociated in 10 mM MES (pH 5.8), 150 mM NaCl, and 0.05% TWEEN® 20 (polyoxyethelene sorbitan monolaurate). Similarly, the dissociation rate (kd(1/s)) at pH 7.4 was calculated using Biacore T100™ Evaluation Software (GE Healthcare) by fitting only the dissociation phase at pH 7.4, where 0.5 μg/mL of the sample was bound in 10 mM MES (pH 7.4), 150 mM NaCl, and 0.05% TWEEN® 20 (polyoxyethelene sorbitan monolaurate), and dissociated in 10 mM MES (pH 7.4), 150 mM NaCl, and 0.05% TWEEN® 20 (polyoxyethelene sorbitan monolaurate).
In the case of B4, the koff is reported as 0.00378 s⁻¹. For B2, the koff was 0.00144 s⁻¹. B3 showed a koff of 0.000715 s⁻¹.
